Blank lines part the entries; values can stand above or below the substance they belong to.
How the values were obtained:
[1] = biological target: His6-tagged dimerization-deficient rat gephyrin variant (G483D, S505F), trimers (ddGephT) (rat); assay: SEC; single proteins: preparative Superdex 200 16/60 after Ni-NTA and analytical Superose 6 increase; molecular weights by comparison to standard proteins; oligomeric state of the protein with itself
[2] = biological target: His6-tagged rat gephyrin P1, wild type, high oligomers (GephHO) (rat); assay: SEC; as a1 with 1.5 nmol of the respective PIP (10 mol% in POPC) or POPC alone in DDM micelles added; SEC buffer with 0.01% DDM; height of the > 5 MDa void peak P1 at 280 nm
[3] = biological target: His6-tagged rat gephyrin E-domain, wild type (WT-GephE) (rat); assay: mass photometry; Refeyn TwoMP; 5 nM final in 25 mM Tris/HCl pH 7.5, 150 mM NaCl, 5 mM β-mercaptoethanol, 1% glycerol; 60 s
[4] = biological target: His6-tagged rat gephyrin P1, wild type, high oligomers (GephHO) (rat); assay: SEC; single proteins: preparative Superdex 200 16/60 after Ni-NTA and analytical Superose 6 increase; molecular weights by comparison to standard proteins; oligomeric state of the protein with itself
[5] = biological target: His6-tagged rat gephyrin P1, wild type, trimers (GephT) (rat); assay: as above
[6] = biological target: collybistin CB2SH3+ (Rattus norvegicus) (UniProt Q9QX73); assay: FRET; settings: cited from earlier work
Chain of collybistin CB2SH3+ (Rattus norvegicus) (Q9QX73 whole entry): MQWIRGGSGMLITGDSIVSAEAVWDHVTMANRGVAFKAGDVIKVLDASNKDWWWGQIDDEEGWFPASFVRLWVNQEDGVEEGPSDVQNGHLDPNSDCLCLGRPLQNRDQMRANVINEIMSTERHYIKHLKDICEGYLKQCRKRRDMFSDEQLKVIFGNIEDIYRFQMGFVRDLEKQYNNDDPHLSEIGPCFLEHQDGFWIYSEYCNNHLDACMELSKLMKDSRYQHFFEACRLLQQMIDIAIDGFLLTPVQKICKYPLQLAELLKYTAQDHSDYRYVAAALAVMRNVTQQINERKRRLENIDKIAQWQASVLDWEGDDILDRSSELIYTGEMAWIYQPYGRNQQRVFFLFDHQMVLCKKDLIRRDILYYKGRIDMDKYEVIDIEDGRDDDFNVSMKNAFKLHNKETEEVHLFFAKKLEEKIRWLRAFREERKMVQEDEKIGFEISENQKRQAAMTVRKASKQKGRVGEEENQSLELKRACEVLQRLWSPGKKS

[7] = biological target: gephyrin from pig brain (pig (endogenous in pig brain tissue)); assay: native gel or EMSA; blue native PAGE (4%-16%) of the cytosol fraction of pig brain, western blot for gephyrin

Chain of gephyrin E-domain (Q03555 326-768): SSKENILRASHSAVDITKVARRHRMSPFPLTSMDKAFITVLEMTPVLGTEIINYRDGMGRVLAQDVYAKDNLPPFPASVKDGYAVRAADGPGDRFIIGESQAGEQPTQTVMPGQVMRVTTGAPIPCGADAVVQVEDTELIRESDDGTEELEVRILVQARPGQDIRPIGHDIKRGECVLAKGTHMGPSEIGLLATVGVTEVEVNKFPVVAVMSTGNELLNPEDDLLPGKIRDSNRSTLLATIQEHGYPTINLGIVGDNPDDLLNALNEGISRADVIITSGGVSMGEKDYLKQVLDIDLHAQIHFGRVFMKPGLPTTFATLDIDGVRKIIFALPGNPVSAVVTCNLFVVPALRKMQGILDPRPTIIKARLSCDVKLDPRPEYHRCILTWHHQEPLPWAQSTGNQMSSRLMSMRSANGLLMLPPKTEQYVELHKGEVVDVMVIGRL

- stoichiometry N [3]: 2
Substance: His6-tagged rat gephyrin E-domain, wild type (WT-GephE) (domain or fragment)

- stoichiometry N [4]: 12
Substance: His6-tagged rat gephyrin P1, wild type, high oligomers (GephHO) (natural protein)

- stoichiometry N [5]: 3
Substance: His6-tagged rat gephyrin P1, wild type, trimers (GephT) (natural protein)

- stoichiometry N [7]: 3
Substance: gephyrin from pig brain (natural protein)

More lines, now with the values behind:

Substance: His6-tagged dimerization-deficient rat gephyrin variant (G483D, S505F), trimers (ddGephT) (natural protein)
- stoichiometry N [1]: 3

Substance: His6-tagged rat collybistin isoform 2 lacking the SH3 domain (CB2_(SH3-)) (natural protein)
- P1 (> 5 MDa complex peak) absorption at 280 nm with PI(3,4)P2 [2]: 344 mAU
- P1 (> 5 MDa complex peak) absorption at 280 nm with PI(3,4,5)P3 [2]: 378 mAU
- P1 (> 5 MDa complex peak) absorption at 280 nm with PI(4,5)P2 [2]: 255 mAU
- P1 (> 5 MDa complex peak) absorption at 280 nm with POPC [2]: 148 mAU
- increase of the CB2SH3- band share within P1 with PI(3,4,5)P3 against the POPC control [2]: 22%
- increase of the GephHO band share within P1 with PI(3,4,5)P3 against the POPC control [2]: 21%

Substance: gephyrin E-domain (from UniProt Q03555)
- Kd [6]: 6.3 µM

Reference: paper PMC12334862
